Patent US20240141045A1

Target: PD-1 Fc fusion protein (UniProt Q15116)
Assay: SPR (Biacore 3000), recombinant PD-1 Fc immobilised on CM5 chip, fusion protein injected

Chain of PD-1 Fc fusion protein (Q15116 25-167 limits assumed): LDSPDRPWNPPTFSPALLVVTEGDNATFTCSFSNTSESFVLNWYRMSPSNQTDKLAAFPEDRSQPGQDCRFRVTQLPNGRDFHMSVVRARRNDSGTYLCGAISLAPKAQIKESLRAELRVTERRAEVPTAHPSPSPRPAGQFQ

B1: Anti-PD1 (VH7-VL6) scFv-Fc-ADA2 (Fc fusion, part only; not given: scFv linker and Fc, not shown: a dimerising Fc or GST)
scFv (part 1 of 2), part: QVQLVQSGVEVKKPGASVKVSCKASGYTFTNYYMYWVRQAPGQGLEWMGGINPSNGGTNFNEKFKNRVTLTTDSSTTTAYMELKSLQFDDTAVYYCARRDYRFDMGFDYWGQGTTVTVSSEIVLTQSPATLSLSPGERATLSCRASKGVSTSGYSYLHWYQQKPGQAPRLLIYLASYLESGVPARFSGSGSGTDFTLTISSLEPEDFAVYYCQHSRDLPLTFGGGTKVEIK
scFv (part 2 of 2), part: GGGGSGGGGSIDETRAHLLLKEKMMRLGGRLVLNTKEELANERLMTLKIAEMKEAMRTLIFPPSMHFFQAKHLIERSQVFNILRMMPKGAALHLHDIGIVTMDWLVRNVTYRPHCHICFTPRGIMQFRFAHPTPRPSEKCSKWILLEDYRKRVQNVTEFDDSLLRNFTLVTQHPEVIYTNQNVVWSKFETIFFTISGLIHYAPVFRDYVFRSMQEFYEDNVLYMEIRARLLPVYELSGEHHDEEWSVKTYQEVAQKFVETHPEFIGIKIIYSDHRSKDVAVIAESIRMAMGLRIKFPTVVAGFDLVGHEDTGHSLHDYKEALMIPAKDGVKLPYFFHAGETDWQGTSIDRNILDALMLNTTRIGHGFALSKHPAVRTYSWKKDIPIEVCPISNQVLKLVSDLRNHPVATLMATGHPMVISSDDPAMFGAKGLSYDFYEVFMGIGGMKADLRTLKQLAMNSIKYSTLLESEKNTFMEIWKKRWDKFIADVATK
- Kd: 0.563 nM
